Assay results as given in paper PMC6265484, “Homodimerization regulates an endothelial specific signature of the SOX18 transcription factor”.

Assays:
SOX18 full length [1] = target: T1, SOX18 full length (mouse, UniProt P43680 1-377); experiment: fluorescence polarization; 2 mM Mg2+; FP: 30 mM HEPES pH 7.5, 100 mM KCl, 40 mM NaCl, 10 mM ammonium acetate, 10 mM guanidinium HCl, 2 mM MgCl2, 0.5 mM EDTA, 0.01% NP-40, room temp, 5 nM DNA, 5-150; details: protein: recombinant; tags: N-terminal HIS-GST; chain copies: 2; label: 5'-fluorescein; blunt
T1 sequence (P43680 whole entry): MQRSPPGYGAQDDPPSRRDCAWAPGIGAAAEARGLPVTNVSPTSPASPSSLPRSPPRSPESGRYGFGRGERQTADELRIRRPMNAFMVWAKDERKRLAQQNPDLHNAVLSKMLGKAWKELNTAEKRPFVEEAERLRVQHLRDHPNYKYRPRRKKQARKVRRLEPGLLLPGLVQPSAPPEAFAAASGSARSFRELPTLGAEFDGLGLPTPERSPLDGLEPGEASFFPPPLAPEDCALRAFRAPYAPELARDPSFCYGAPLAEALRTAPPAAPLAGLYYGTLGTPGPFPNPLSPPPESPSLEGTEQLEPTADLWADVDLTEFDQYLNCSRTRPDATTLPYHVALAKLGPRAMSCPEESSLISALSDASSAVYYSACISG

SOX18 full length [2] = target: T1, SOX18 full length; experiment: fluorescence polarization; 2 mM Mg2+; maximum binding (highest mP); FP: 30 mM HEPES pH 7.5, 100 mM KCl, 40 mM NaCl, 10 mM ammonium acetate, 10 mM guanidinium HCl, 2 mM MgCl2, 0.5 mM EDTA, 0.01% NP-40, room temp, 5 nM DNA, 5-150; details: protein: recombinant; tags: N-terminal HIS-GST; chain copies: 2; label: 5'-fluorescein; blunt
SOX18-HMG (Sox18_79) = SOX18-HMG (Sox18_79) (mouse, UniProt P43680 77-155); experiment: EMSA; 15 nM protein, 1 nM DNA, 50 uM Zn2+; two HMG bind; FP: 30 mM HEPES pH 7.5, 100 mM KCl, 40 mM NaCl, 10 mM ammonium acetate, 10 mM guanidinium HCl, 2 mM MgCl2, 0.5 mM EDTA, 0.01% NP-40, room temp, 5 nM DNA, 5-150; details: protein: recombinant; tags: pETG20A or pHisMBP vector; chain copies: 2; label: 5'-Cy5; blunt
Chain of SOX18-HMG (Sox18_79) (P43680 77-155): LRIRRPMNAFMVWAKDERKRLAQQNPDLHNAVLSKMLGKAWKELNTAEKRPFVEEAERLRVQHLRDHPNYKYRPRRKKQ

SOX9-HMG = SOX9-HMG (UniProt Q04887 105-173); experiment: EMSA; 50 uM Zn2+; two HMG bind; FP: 30 mM HEPES pH 7.5, 100 mM KCl, 40 mM NaCl, 10 mM ammonium acetate, 10 mM guanidinium HCl, 2 mM MgCl2, 0.5 mM EDTA, 0.01% NP-40, room temp, 5 nM DNA, 5-150; details: protein: recombinant; chain copies: 2; label: 5'-Cy5; blunt
Chain of SOX9-HMG (Q04887 105-173): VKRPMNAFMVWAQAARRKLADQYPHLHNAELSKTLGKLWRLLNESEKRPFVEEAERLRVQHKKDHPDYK

B1: IR1 (FP) (dsDNA)
DNA 1: CGCCAGTAGGGCAACAATGATTGTTGCTTCCGGGGGC
DNA 2: GCCCCCGGAAGCAACAATCATTGTTGCCCTACTGGCG
binding signal (SOX18 full length [1]): ~0.5 occupancy relative to IR5

B2: IR5 (FP) (dsDNA)
DNA 1: CGCCAGTAGGAACAATGCGGCATTGTTTTCCGGGGGC
DNA 2: GCCCCCGGAAAACAATGCCGCATTGTTCCTACTGGCG
binding result (SOX18 full length [2]): binds

B3: IR5 (EMSA) (dsDNA)
DNA 1: CGCCAGTAGGAACAATGCGGCATTGTTTTCCGGGGGC
DNA 2: GCCCCCGGAAAACAATGCCGCATTGTTCCTACTGGCG
binding result (SOX18-HMG (Sox18_79)): binds | binding result (SOX9-HMG): binds
